Results published in article PMC9961482.

How the values were obtained:
[1] = target: Encapsulin–SpyTag (Myxococcus xanthus | Streptococcus pyogenes) (UniProt Q1D6H4); test: SEC-MALS
[2] = target: human ACE2-hFc fusion protein (human) (UniProt Q9BYF1); test: SPR

Row | stoichiometry N [1] | Substance | kon [2] | per cent reduction of binding after four weeks at 37 °C [2] | per cent reduction of binding after two weeks at 37 °C [2]
1 | 180 | Encapsulin–SpyTag (from UniProt Q1D6H4 1-287) | – | – | –
2 | – | Encapsulin–mRBD nanoparticle (from UniProt Q1D6H4;P0DTC2) (complex) | 2.58e+06 M⁻¹ s⁻¹ | 36 per cent | 1 per cent
